This data set is described as follows: label from the status in PepcDB records.

Consider 27 sequences from a protein production outcome set (Wang et al. 2014).

Take “MGGIYRLSLKSTEATAERLSCDTRCNYEDRDLAYSPDGRWLAIARRFSNISEDIFIRDLASAHEKRLTQGLEDIRGLSWTPDSQALVFATEDSGSSNGFTLDINTAQIRSLDVEGMSYPSSVSAEGELVYHQYHRQFQMAYFSLGDKVPGSLFPLLYSGVSHRNPDYSPEAKRIVFVSSETG”: the protein production entry is “failed”.

As for “MGGKWSTPSFDEAARLVLGRGFHHVSLCAAGYFSDGNETIHRESVLSAIDPSVRVETIPCLNDSPHLIACLAGRVVAASRQILAFSGDLKG”, the protein production entry was “failed”.

In the case of “MGGLGYGCHPVPAVLDDEGNQLPDPGRRRTVIHDGSAADRQPGVQHRALADGRRQLARHRLLPGRARRVIAGQGCQRARPRSGEGRRRGVHGDLRHRIRHGPASLPDRGGRGRRAEALLVAEEHAMSRASRHRILAAMLSACLLSLLGGCTPLTVLAVLGGCKDGGSNGSSGGVTGSVTTGEVRDGMTIAQTKAWFNGSDGPDNVCQAYPDGQCTWWACMRGHKIGLDVGSYWGNGGDWAASATAAGWKTTRTDPVAGSIVSYPPGVADADTLYGHVAVVEAVDRTAGTVTISEMNGRGGLGIVNHRTHRINVGAVYILPNGSVSTNGSAGTDSTSSGSESSDSSSSSDSSSSSDPVEAAWTCSSSDSGSTDVVVDYDGDGTHATPEQARAIARKMIASYKDWGDGDYDALVWLWNKESGWQWNATNPSSGAYGIPQALPASKLASAGDDWKDNAATQIKWGLNYIAGRYGSPSAAKTFWLAHNWY”, the protein production result is recorded as “failed”.

Take “MGGLTLFAAQGCKAPKQVAEQAEHPNIIYVFPDQYRNQAMGFWNQEGFRDKVNFRGDPVHTPNIDTFARESMVLTSAQSNCPLSSPHRGMLLTGMYPNRSGVPLNCNSTRPISSLRDDAECIGDVFSKAGYDCAYFGKLHADFPTPNDPENPGQYVETQRPVWDAYTPKEQRHGFNYWYSYGTFDEHKNPHYWDTDGKRHDPKEWSPLHESGKVVSYLKNEGNVRDTKKPFFIMVGMNPPHSPYRSLNDCEEQDFNLYKDQPLDSLLIRPNVDLNMKKAESVRYYFASVTGVDRAFGQILEALKQLGLDKNTVVIFASDHGETMCSQRTDDPKNSPYSESMNIPFLVRFPGKIQPRVDDLLLSAPDIMPTVLGLCGLGDSIPSEVQGRNFAPLFFDEKAEIVRPAGALYIQNLDGEKDKDGLVQSYFPSSRGIKTARYTLALYIDRKTKQLKKSLLFDDVNDPYQLNNLPLDENKEVVEQLYREMGTMLKEIDDPWYTEKILSDRIPYLEHHHHHH”: the protein production result was “failed”.

Consider “MGHEAKHPIIIGITGNIGSGKSTVAALLRSWGYPVLDLDALAARARENKEEELKRLFPEAVVGGRLDRRALARLVFSDPERLKALEAVVHPEVRRLLMEELSRLEAPLVFLEIPLLFEKGWEGRLHGTLLVAAPLEERVRRVMARSGLSREEVLARERAQMPEEEKRKRATWVLENTGSLEDLERALKAVLAELTGGAKEGRG”, for which the protein production entry is recorded as “not failed”.

Regarding “MGHHHHHHENLYFQSHLKIMDVEGGALVDPDHIEEVETSMVIVVDDDDGDVAMVVEEDKHPMRDDPCIEDIMDDEHAPLVAELQSALNNPDDKQASEDPLLED”, the protein production entry was “failed”.

Regarding “MGHHHHHHENLYFQSHMTDFVELMNSMSSTFNSDCATSTAEGGTLLNLNLAEDKTLKWRNLANNQFASKEKKHKDKEEEERKEARNQEEIEDIKALLADVVDAAAVKLEEEEAQNAEKVEPHTKCEIEEEGRKEMEYDQDVAKQDSEMEKKQNGKATSITVKMES”, the protein production result is listed as “not failed”.

As to “MGHHHHHHSHADLPQWVSERLLQQINQLTNYEPVIGIMGKTGVGKSSLCNALFAGDISPVSDVAACTREPLRFRLQVGDRYITLMDLPGVGESGARDTEYAALYREQLPRLDLVLWLIKADDRALTVDEHFYHQVIGEVYRHKVLFVISQSDKAEPTSGGGQLSTAQKQNISRKICLLHELFQPVHPVCAVSVRLQWGLKVMAERMIKCLP”, the protein production entry was “not failed”.

Take “MGHHHHHHSHAHTTTSMEIFGSPEQVWQLIGGFNSLPDWLPYIPSSKLTEGGRVRHLANPDGDTIIERLEVFNDKERYYTYSIMNAPFPVTNYLSTIQVKEGTESNTSLVEWSGTFTPVEVSDEEAINLFHGIYSDGLKALQQAF”: the protein production result is on record as “not failed”.

On to “MGHHHHHHSHGQQSVSNKLLAWSGVLEWQEKPKPASVDANTKLTRSLPCQVYVNHGENLKTEQWPQKLIMQLIPQQLLTTLGPLFRNSRMVQFHFTNKDLESLKGLYRIMGNGFAGCVHFPHTAPCEVRVLMLLYSSKKKIFMGLIPYDQSGFVNGIRQVITN”, for which the protein production entry is on record as “not failed”.

As to “MGHHHHHHSHMAAAIASSLIRQKRQAREREKSNACKCVSSPSKGKTSCDKNKLNVFSRVKLFGSKKRRRRRPEPQLKGIVTKLYSRQGYHLQLQADGTIDGTKDEDSTYTLFNLIPVGLRVVAIQGVQTKLYLAMNSEGYLYTSELFTPECKFKESVFENYYVTYSSMIYRQQQSGRGWYLGLNKEGEIMKGNHVKKNKPAAHFLPKPLKVAMYKEPSLHDLTEFSRSGSGTPTKSRSVSGVLNGGKSMSHNEST”, the protein production result is “not failed”.

“MGHHHHHHSHMADNMTTTQIEVGPGATNATINFEAGILECYERFSWQRALDYPGQDRLHRLKRKLESRIKTHNKSEPENKRMSLEERKAIGVKMMKVLLFMDPSAGIEGFEPY”: the protein production result is listed as “not failed”.

“MGHHHHHHSHMAGTVVLDDVELREAQRDYLDFLDDEEDQGIYQSKVRELISDNQYRLIVNVNDLRRKNEKRANRLLNNAFEELVAFQRALKDFVASIDATYAKQYEEFYVGLEGSFGSKHVSPRTLTSCFLSCVVCVEGIVTKCSLVRPKVVRSVHYCPATKKTIERRYSDLTTLVAFPSSSVYPTKDEENNPLETEYGLSVYKDHQTITIQEMPEKAPAGQLPRSVDVILDDDLVDKAKPGDRVQVVGTYRCLPGKKGGYTSGTFRTVLIACNVKQMS”: the protein production entry is “not failed”.

Turning to “MGHHHHHHSHMAKTYDYLFKLLLIGDSGVGKTCVLFRFSEDAFNSTFISTIGIDFKIRTIELDGKRIKLQIWDTAGQERFRTITTAYYRGAMGIMLVYDITNEKSFDNIRNWIRNIEEHASADVEKMILGNKCDVNDKRQVSKERGEKLALDYGIKFMETSAKANINVENAFFTLARDIKAKMDKKLEGNSPQGSNQGVKITPDQQKRSSFFRCVLL”, the protein production result is “not failed”.

Consider “MGHHHHHHSHMALKDYALEKEKVKKFLQEFYQDDELGKKQFKYGNQLVRLAHREQVALYVDLDDVAEDDPELVDSICENARRYAKLFADAVQELLPQYKEREVVNKDVLDVYIEHRLMMEQRSRDPGMV”, for which the protein production entry is listed as “not failed”.

Take “MGHHHHHHSHMATGQDRVVALVDMDCFFVQVEQRQNPHLRNKPCAVVQYKSWKGGGIIAVSYEARAFGVTRSMWADDAKKLCPDLLLAQVRESRGKANLTKYREASVEVMEIMSRFAVIERASIDEAYVDLTSAVQERLQKLQGQPISADLLPSTYIEGLPQGPTTAEETVQKEGMRKQGLFQWLDSLQIDNLTSPDLQLTVGAVIVEEMRAAIERETGFQCSAGISHNKVLAKLACGLNKPNRQTLVSHGSVPQLFSQMPIRKIRSLGGKLGASVIEILGIEYMGELTQFTESQLQSHFGEKNGSWLYAMCRGIEHDPVKPRQLP”: the protein production entry is reported as “not failed”.

Consider “MGHHHHHHSHMNSAEQTVTWLITLGVLESPKKTISDPEGFLQASLKDGVVLCRLLERLLPGTIEKVYPEPRSESECLSNIREFLRGCGASLRLELLFPPSQPPQHLVTTILLSASTFDANDLYQGQNFNKVLSSLVTLNKVTADIGLGSDSVCARPSSHRIKSFDSLGSQSLHTR”, for which the protein production result is reported as “failed”.

For the sequence “MGHHHHHHSHMNSDSECPLSHDGYCLHDGVCMYIEALDKYACNCVVGYIGERCQYRDLKWWELR”, the protein production result is listed as “failed”.

For “MGHHHHHHSHMQPAKEVTKASDGSLLGDLGHTPLSKKEGIKWQRPRLSRQALMRCCLVKWILSSTAPQGSDSSDSELELSTVRHQPEGLDQLQAQTKFTKKELQSLYRGFKNECPTGLVDEDTFKLIYAQFFPQGDATTYAHFLFNAFDADGNGAIHFEDFVVGLSILLRGTVHEKLKWAFNLYDINKDGYITKEEMLAIMKSIYDMMGRHTYPILREDAPAEHVERFFEKMDRNQDGVVTIEEFLEACQKDENIMSSMQLFENVI”, the protein production entry is “failed”.

For the sequence “MGHHHHHHSHMSRVPPTVTNAVSWRSEGIKYKKNEVFIDVIESVNLLVNANGSVLLSEIVGTIKLKVFLSGMPELRLGLNDRVLFELTGRSKNKSVELEDVKFHQCVRLSRFDNDRTISFIPPDGDFELMSYRLSTQVKPLIWIESVIEKFSHSRVEIMVKAKGQFKKQSVANGVEISVPVPSDADSPRFKTSVGSAKYVPERNVVIWSIKSFPGGKEYLMRAHFGLPSVEKEEVEGRPPIGVKFEIPYFTVSGIQVRYMKIIEKSGYQALPWVRYITQSGDYQLRTS”, the protein production entry is given as “failed”.

“MGHHHHHHSHMVANPPASKESIDALPEILVTEDHGAVGQEMCCPICCSEYVKGEVATELPCHHYFHKPCVSIWLQKSGTCPVCRCMFPPPL”: the protein production result is “failed”.

“MGHHHHHHSHRGAGRVSRWPPPHWLEAWRVSPRPLSPLSPATFGRGFIAVAVIPGLWARGRGCSSDRLPRPAGPARRQFQAASLLTRGWGRAWPWKQILKELDECYERFSRETDGAQK”: the protein production result was “failed”.

Consider “MGHHHHHHSHRNLDSRTFITIGDRNFEVEADDLVTISELGRGAYGVVEKVRHAQSGTIMAVKRIRATVNSQEQKRLLMDLDINMRTVDCFYTVTFYGALFREGDVWICMELMDTSLDKFYRKVLDKNMTIPEDILGEIAVSIVRALEHLHSKLSVIHRDVKPSNVLINKEGHVKMCDFGISGYLVDSVAKTMDAGCKPYMAPERINPELNQKGYNVKSDVWSLGITMIEMAILRFPYESWGTPFQQLKQVVEEPSPQLPADRFSPEFVDFTAQCLRKNPAERMSYLELMEHPFFTLHKTKKTDIAAFVKEILGEDS”, for which the protein production result is listed as “failed”.

For “MGHHHHHHSHVRSPQNQYPAELMRRFELYFQGPSSNKPRVIREVRADSVGKLVTVRGIVTRVSEVKPKMVVATYTCDQCGAETYQPIQSPTFMPLIMCPSQECQTNRSGGRLYLQTRGSRFIKFQEMKMQEHSDQVPVGNIPRSITVLVEGENTRIAQPGDHVSVTGIFLPILRTGFRQVVQGLLSETYLEAHRIVK”, the protein production entry is “failed”.

With “MGHVSNSPFSVDVLVVGGGPAGSAAAIHAAKAGYSVLLIDAQPFPRDKTCGDGLTPRAVHQLEALGVDVTSRYRSFGLKLHGFGGSVTVPWPESHFGQVSSAMPRMKFDAMLWEMAAQHATTWTATASEVEIDSAIRSVTMSDGRVVKPRSVIVADGVRSTFGKLLGRTWHRGEVYGIAARSYCTTPRSTEPWMHSHLELRDDSTTLPGYGWIFPIGDGTANVGCGALSTDKRPAKINTKKLLRHYASQQTDWEFGTPQRVASALLPMGGAVSTIAGPNWMLIGDAAACVNPLNGEGIDYGLETAALAVAHLDNPLEWPHILRETYGEAFLLARTAARLLTYPQFLPLTGPIALRTPLMASAARLMGNLVTEEDKDIVARAWRAAGWGVTKIRGGSPLWDLEHHHHHH”, the protein production result was “failed”.

Consider “MGICVSFRREDSNSSPTVKIVTVNGDLREYNVPVIASQVLEAESAAAYSSSSSSRPSSYFICDSDSLYYDDFIPAIKSEEPLQADQIYFVLPISKRQSRLTASDMAALAVKASVAIQNSVKKESRRRKKVRISPVMMLTGSNDSVNGNGSETTVKKGRPFVSKTAPVKASSGINRSGSVRNLRRYTSKRAKLAVRSFRLKLSTIYEGSVV”, for which the protein production entry is listed as “failed”.

As for “MGICVVIPAFNAALTIEAVVRETLEQGLPLVVVDDGSEDGTADCVRGLPVNLVSHGRNRGKGAALKTGFAWALEYGFSGVITLDSDGQHDPTAITLLAETAKNDGWDILVASRFAQFNQMAGLRRHWNRFGAWCMKKRTGFQIDDSQSGFRYYSARLLRMVSLGKDGYDLEMEILMKAWQAGCTIGSVPVPARVADGRATSHFRPVRDTWNICMTFLRYMLEHHHHHH”, the protein production result is “failed”.
